According to paper doi:10.1101/660712 (bioRxiv, 2019):

Molecular target: His-tagged CP47 (PSII core antenna protein CP47) (Synechocystis sp. PCC 6803, UniProt P05429 1-507)
Assay: AUC

His-tagged CP47 (PSII core antenna protein CP47), sequence (P05429 whole entry): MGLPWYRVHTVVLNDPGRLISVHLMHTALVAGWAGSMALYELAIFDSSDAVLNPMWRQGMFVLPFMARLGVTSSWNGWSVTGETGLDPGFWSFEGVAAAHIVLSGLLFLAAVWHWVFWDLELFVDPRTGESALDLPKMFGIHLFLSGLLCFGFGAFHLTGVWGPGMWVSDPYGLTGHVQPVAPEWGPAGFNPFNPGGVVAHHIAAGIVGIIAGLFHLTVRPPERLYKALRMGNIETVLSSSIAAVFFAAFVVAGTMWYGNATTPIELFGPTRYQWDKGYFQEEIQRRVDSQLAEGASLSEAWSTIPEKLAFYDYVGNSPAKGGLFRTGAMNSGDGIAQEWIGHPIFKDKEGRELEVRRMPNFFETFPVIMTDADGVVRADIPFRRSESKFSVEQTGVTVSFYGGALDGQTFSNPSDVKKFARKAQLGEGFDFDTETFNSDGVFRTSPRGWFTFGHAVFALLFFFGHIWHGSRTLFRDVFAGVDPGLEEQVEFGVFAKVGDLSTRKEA

stoichiometry N: ~1
B1: CP43 (PSII core antenna protein) (natural protein)
chain: not shown
